Data published in patent US20220064329A1 (Novo Nordisk, published 2022).

Key:
Assay in all cases: SPR, ratio of KD to KD of WT
FVII(a) variant E394A = target: T1, FVII(a) variant E394A (human, UniProt P08709 61-466)
T1 construct: hFVII alanine variant in cell culture supernatant
T1 sequence: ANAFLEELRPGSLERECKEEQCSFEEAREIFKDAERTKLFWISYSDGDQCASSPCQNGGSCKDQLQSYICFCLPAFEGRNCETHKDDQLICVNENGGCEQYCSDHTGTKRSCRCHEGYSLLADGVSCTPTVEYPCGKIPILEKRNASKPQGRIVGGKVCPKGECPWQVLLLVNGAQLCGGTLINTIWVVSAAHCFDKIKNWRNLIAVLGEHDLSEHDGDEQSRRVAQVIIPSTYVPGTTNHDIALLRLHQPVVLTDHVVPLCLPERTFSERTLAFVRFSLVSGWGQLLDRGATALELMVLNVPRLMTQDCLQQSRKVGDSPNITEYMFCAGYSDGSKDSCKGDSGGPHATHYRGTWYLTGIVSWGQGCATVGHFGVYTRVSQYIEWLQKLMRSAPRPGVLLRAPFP
Protocol: (§1) The running buffer was prepared by diluting 10-fold the 10×HBS-P buffer (supplied by GE Healthcare) and supplemented with 1 mg/ml BSA and 5 mM CaCl2 to give 10 mM HEPES, 150 mM NaCl, 0.05% v/v Polysorbate 20, pH 7.4, 5 mM CaCl2, 1 mg/ml bovine serum albumin (BSA). […] Regeneration of the chip was achieved using 10 mM HEPES, 150 mM NaCl, 20 mM EDTA, 0.05 v/v Polysorbate 20, pH 7.4. Binding data were analysed according to a 1:1 Kinetic model and steady state analysis using BiaEvaluation 4.1 supplied by the manufacturer (Biacore AB, Uppsala, Sweden). Wherever possible, ka, kd and KD values from 1:1 kinetic fitting model are reported. […] An amino acid residue is considered a hot-spot residue if substitution of that amino acid residue with alanine results in an affinity reduction of ten (10) fold or more relative to the wild type.

FVII(a) variant V252A = target: T2, FVII(a) variant V252A (human, UniProt P08709 61-466)
T2 construct: hFVII alanine variant in cell culture supernatant
T2 sequence: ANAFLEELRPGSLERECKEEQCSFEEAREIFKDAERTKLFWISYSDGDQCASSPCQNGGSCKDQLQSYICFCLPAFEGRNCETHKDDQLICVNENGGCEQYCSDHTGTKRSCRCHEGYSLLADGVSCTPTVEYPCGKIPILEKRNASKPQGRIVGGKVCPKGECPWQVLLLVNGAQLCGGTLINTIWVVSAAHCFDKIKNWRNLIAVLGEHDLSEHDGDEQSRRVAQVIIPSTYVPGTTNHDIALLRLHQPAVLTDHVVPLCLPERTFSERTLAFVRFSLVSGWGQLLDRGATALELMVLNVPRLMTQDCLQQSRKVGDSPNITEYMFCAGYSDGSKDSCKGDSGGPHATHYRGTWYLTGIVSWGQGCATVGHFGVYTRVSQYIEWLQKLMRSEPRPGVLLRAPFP
Protocol: as §1

FVII(a) variant H115A = target: T3, FVII(a) variant H115A (human, UniProt P08709 61-466)
T3 construct: hFVII alanine variant in cell culture supernatant
T3 sequence: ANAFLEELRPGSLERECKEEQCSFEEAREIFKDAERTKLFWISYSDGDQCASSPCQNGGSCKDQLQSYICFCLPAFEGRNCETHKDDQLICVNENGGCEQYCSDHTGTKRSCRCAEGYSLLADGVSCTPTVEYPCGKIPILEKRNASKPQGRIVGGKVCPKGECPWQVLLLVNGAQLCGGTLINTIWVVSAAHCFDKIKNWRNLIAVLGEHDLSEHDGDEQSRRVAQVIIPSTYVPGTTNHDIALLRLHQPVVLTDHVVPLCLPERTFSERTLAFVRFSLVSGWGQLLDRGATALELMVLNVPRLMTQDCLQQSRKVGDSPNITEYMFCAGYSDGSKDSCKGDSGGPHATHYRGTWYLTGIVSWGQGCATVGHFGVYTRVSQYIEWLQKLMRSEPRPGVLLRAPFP
Protocol: as §1

FVII(a) variant R392A = target: T4, FVII(a) variant R392A (human, UniProt P08709 61-466)
T4 construct: hFVII alanine variant in cell culture supernatant
T4 sequence: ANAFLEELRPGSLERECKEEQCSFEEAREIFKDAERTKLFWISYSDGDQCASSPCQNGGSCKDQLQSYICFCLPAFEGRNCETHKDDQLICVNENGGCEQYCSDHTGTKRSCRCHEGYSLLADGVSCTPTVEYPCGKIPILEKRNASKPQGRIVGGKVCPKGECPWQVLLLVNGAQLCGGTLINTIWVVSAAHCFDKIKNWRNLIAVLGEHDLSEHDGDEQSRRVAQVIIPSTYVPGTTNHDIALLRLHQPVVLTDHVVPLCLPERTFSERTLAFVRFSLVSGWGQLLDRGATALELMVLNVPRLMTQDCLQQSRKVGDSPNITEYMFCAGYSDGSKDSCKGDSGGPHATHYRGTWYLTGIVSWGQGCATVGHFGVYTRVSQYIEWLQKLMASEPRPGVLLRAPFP
Protocol: as §1

FVII(a) variant S119A = target: T5, FVII(a) variant S119A (human, UniProt P08709 61-466)
T5 construct: hFVII alanine variant in cell culture supernatant
T5 sequence: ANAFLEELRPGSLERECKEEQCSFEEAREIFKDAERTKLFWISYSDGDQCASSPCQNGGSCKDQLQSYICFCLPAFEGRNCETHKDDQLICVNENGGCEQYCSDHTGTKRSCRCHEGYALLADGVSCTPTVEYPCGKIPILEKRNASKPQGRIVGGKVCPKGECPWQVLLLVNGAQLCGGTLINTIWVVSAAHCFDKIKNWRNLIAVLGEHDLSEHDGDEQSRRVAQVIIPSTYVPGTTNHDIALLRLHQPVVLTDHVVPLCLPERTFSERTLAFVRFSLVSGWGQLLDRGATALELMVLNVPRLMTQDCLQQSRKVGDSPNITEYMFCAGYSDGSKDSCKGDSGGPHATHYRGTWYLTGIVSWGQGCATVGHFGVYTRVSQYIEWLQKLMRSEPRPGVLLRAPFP
Protocol: as §1

Fold diff (Variant/WT) (FVII(a) variant E394A): 2.6 fold
Fold diff (Variant/WT) (FVII(a) variant V252A): 0.9 fold
Fold diff (Variant/WT) (FVII(a) variant H115A): 26.8 fold
Fold diff (Variant/WT) (FVII(a) variant R392A): 142 fold
Fold diff (Variant/WT) (FVII(a) variant S119A): 1 fold
B1: mAb0842(OA) (antibody, human IgG4 S228P, kappa)
heavy: QVQLQESGPGLVKPSQTLSLTCTVSGYSISSDSAWSWIRQPPGKGLEWIGYIQYSGSTNYNPSLKSRVTISRDTSKNQFSLKLSSVTAADTAVYYCARSVNYYGNSFAVGYWGQGTLVTVSSASTKGPSVFPLAPCSRSTSESTAALGCLVKDYFPEPVTVSWNSGALTSGVHTFPAVLQSSGLYSLSSVVTVPSSSLGTKTYTCNVDHKPSNTKVDKRVESKYGPPCPPCPAPEFLGGPSVFLFPPKPKDTLMISRTPEVTCVVVDVSQEDPEVQFNWYVDGVEVHNAKTKPREEQFNSTYRVVSVLTVLHQDWLNGKEYKCKVSNKGLPSSIEKTISKAKGQPREPQVYTLPPSQEEMTKNQVSLSCAVKGFYPSDIAVEWESNGQPENNYKTTPPVLDSDGSFFLVSRLTVDKSRWQEGNVFSCSVMHEALHNHYTQKSLSLSLGK
light: EIVLTQSPATLSLSPGERATLSCRASQGISDYLHWYQQKPGEAPRLLIKYTSQPATGIPARFSGSGSGTDFTLTISSLEPEDFAVYYCQNGHSFPLTFGQGTKLEIKRTVAAPSVFIFPPSDEQLKSGTASVVCLLNNFYPREAKVQWKVDNALQSGNSQESVTEQDSKDSTYSLSSTLTLSKADYEKHKVYACEVTHQGLSSPVTKSFNRGEC
chain: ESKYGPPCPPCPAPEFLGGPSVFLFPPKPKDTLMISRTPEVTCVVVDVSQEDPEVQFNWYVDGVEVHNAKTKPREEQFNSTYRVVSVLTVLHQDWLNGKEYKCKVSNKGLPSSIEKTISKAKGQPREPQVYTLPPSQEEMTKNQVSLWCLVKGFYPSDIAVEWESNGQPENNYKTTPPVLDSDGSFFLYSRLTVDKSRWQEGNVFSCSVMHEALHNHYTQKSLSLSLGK
notes: also called monovalent humanized 11F2 antibody; one-armed anti-FVII(a) antibody
